Measurements as given in publication PMC9529352.

Biological target: N protein WT (SARS-CoV-2, UniProt P0DTC9 1-419)
Test: mass photometry
Conditions: protein: recombinant; tags: 6xHis-SUMO tag cleaved by Ulp1; chain copies: 12; hairpin

B1: SL8 RNA (structured_RNA)
RNA: GAUGGCACUUGUGGCUUAGUAGAAGUUGAAAAAGGCGUUUUGCCUCAACUUGAACAGCCCUAUGUGUUCAUC
B1: binds.
